From PMC13170487 (Journal of molecular biology, 2025) come the findings set out here.

A word on the Ki: it is a dissociation constant, usually derived from enzyme kinetics or from competition with a known ligand.

In assay [1] the target is CFTR-associated ligand (CAL) PDZ domain (UniProt Q9HD26-2 276-362). Kind of assay: fluorescence polarisation. In general terms: Polarisation of emitted light reports the rotation of a fluorescent probe.
The target of assay [2] is T1, Tax-interacting protein 1 (TIP-1), His10 tag cleaved (UniProt O14907 1-124).
T1 sequence (looked up): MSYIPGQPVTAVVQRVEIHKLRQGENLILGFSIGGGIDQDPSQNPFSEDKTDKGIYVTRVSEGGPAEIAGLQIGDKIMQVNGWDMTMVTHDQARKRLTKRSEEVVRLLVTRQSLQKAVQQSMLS
Description: fluorescence polarisation.

B1: BT-iCAL36 (peptide)
peptide: WRFKKANSRWPTSII
In the case of B1, the Ki in assay [1] came to 3.1 µM; in assay [2] it was 2.4 µM.

B2: L-iCAL36 (peptide)
peptide: ANSRLPTSII
For B2, the Ki in assay [2] is over 1000 µM.

B3: Y-iCAL36 (peptide)
peptide: ANSRYPTSII
Molecule B3 came in with a Ki in assay [2] of 390 µM.
